Measured values from publication PMC11748629, “Unidirectional MCM translocation away from ORC drives origin licensing” (Nature Communications, 2025).

T1: Orc1 (Saccharomyces cerevisiae, UniProt P54784 1-914)
T1 construct: Orc1, S. cerevisiae; Subunit of m1, written alone for the contacts seen in the structures; also called Orc1 subunit of ORC; source: S. cerevisiae strain ySD-ORC, purified as a subunit of ORC
T1 sequence: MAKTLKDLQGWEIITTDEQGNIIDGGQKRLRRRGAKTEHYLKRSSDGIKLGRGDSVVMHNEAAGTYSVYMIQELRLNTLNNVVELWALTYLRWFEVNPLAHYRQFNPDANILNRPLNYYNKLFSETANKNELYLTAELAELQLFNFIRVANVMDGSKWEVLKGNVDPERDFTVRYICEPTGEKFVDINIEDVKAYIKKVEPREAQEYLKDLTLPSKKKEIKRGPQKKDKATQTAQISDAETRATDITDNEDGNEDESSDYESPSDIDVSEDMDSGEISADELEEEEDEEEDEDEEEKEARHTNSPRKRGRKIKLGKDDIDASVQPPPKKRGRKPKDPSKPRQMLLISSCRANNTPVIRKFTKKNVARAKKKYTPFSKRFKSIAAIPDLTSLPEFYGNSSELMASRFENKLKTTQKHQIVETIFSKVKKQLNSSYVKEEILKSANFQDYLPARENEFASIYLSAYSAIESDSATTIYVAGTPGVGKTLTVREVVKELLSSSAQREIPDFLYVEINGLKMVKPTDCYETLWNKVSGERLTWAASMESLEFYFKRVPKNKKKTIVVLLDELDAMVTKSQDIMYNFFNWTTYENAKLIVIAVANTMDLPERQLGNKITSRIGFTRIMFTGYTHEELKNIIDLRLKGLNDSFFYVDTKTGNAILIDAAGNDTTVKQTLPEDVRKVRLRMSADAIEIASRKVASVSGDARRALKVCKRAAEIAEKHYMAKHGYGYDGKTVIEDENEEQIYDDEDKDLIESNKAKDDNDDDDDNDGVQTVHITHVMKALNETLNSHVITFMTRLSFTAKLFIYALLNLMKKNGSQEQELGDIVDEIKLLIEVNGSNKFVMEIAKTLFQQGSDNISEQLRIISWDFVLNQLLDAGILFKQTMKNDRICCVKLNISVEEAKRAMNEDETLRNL

T2: Orc3 (Saccharomyces cerevisiae, UniProt P54790 1-616)
T2 construct: Orc3, S. cerevisiae; Subunit of m1, written alone for the contacts seen in the structures; also called Orc3 subunit of ORC; source: S. cerevisiae strain ySD-ORC, purified as a subunit of ORC
T2 sequence: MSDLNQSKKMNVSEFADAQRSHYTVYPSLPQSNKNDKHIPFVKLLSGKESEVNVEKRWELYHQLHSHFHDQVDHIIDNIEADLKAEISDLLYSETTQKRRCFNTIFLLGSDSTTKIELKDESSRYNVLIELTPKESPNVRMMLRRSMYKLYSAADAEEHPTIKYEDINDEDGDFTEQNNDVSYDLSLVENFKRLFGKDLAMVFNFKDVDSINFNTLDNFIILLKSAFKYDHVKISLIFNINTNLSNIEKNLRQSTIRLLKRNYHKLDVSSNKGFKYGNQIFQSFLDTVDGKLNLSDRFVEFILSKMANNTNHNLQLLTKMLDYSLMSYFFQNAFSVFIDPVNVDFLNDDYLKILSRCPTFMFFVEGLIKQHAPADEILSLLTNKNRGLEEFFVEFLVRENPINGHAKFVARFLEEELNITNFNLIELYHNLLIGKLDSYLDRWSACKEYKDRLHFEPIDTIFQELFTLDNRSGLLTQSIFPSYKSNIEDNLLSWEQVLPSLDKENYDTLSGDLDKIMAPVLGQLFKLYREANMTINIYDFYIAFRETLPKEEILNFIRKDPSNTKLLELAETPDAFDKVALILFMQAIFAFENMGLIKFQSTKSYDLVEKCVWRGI

B1: Orc4 (natural protein, Saccharomyces cerevisiae)
chain: MTISEARLSPQVNLLPIKRHSNEEVEETAAILKKRTIDNEKCKDSDPGFGSLQRRLLQQLYGTLPTDEKIIFTYLQDCQQEIDRIIKQSIIQKESHSVILVGPRQSYKTYLLDYELSLLQQSYKEQFITIRLNGFIHSEQTAINGIATQLEQQLQKIHGSEEKIDDTSLETISSGSLTEVFEKILLLLDSTTKTRNEDSGEVDRESITKITVVFIFDEIDTFAGPVRQTLLYNLFDMVEHSRVPVCIFGCTTKLNILEYLEKRVKSRFSQRVIYMPQIQNLDDMVDAVRNLLTVRSEISPWVSQWNETLEKELSDPRSNLNRHIRMNFETFRSLPTLKNSIIPLVATSKNFGSLCTAIKSCSFLDIYNKNQLSNNLTGRLQSLSDLELAILISAARVALRAKDGSFNFNLAYAEYEKMIKAINSRIPTVAPTTNVGTGQSTFSIDNTIKLWLKKDVKNVWENLVQLDFFTEKSAVGLRDNATAAFYASNYQFQGTMIPFDLRSYQMQIILQELRRIIPKSNMYYSWTQL
notes: Orc4, S. cerevisiae; Subunit of m1, written alone for the contacts seen in the structures; also called Orc4 subunit of ORC; source: S. cerevisiae strain ySD-ORC, purified as a subunit of ORC
B2: Mcm2 R676A (natural protein, Saccharomyces cerevisiae)
chain: MSDNRRRRREEDDSDSENELPPSSPQQHFRGGMNPVSSPIGSPDMINPEGDDNEVDDVPDIDEVEEQMNEVDLMDDNMYEDYAADHNRDRYDPDQVDDREQQELSLSERRRIDAQLNERDRLLRNVAYIDDEDEEQEGAAQLDEMGLPVQRRRRRRQYEDLENSDDDLLSDMDIDPLREELTLESLSNVKANSYSEWITQPNVSRTIARELKSFLLEYTDETGRSVYGARIRTLGEMNSESLEVNYRHLAESKAILALFLAKCPEEMLKIFDLVAMEATELHYPDYARIHSEIHVRISDFPTIYSLRELRESNLSSLVRVTGVVTRRTGVFPQLKYVKFNCLKCGSILGPFFQDSNEEIRISFCTNCKSKGPFRVNGEKTVYRNYQRVTLQEAPGTVPPGRLPRHREVILLADLVDVSKPGEEVEVTGIYKNNYDGNLNAKNGFPVFATIIEANSIKRREGNTANEGEEGLDVFSWTEEEEREFRKISRDRGIIDKIISSMAPSIYGHRDIKTAVACSLFGGVPKNVNGKHSIRGDINVLLLGDPGTAKSQILKYVEKTAHRAVFATGQGASAVGLTASVRKDPITKEWTLEGGALVLADKGVCLIDEFDKMNDQDRTSIHEAMEQQSISISKAGIVTTLQARCSIIAAANPNGGRYNSTLPLAQNVSLTEPILSAFDILCVVRDLVDEEADERLATFVVDSHVRSHPENDEDREGEELKNNGESAIEQGEDEINEQLNARQRRLQRQRKKEEEISPIPQELLMKYIHYARTKIYPKLHQMDMDKVSRVYADLRRESISTGSFPITVRHLESILRIAESFAKMRLSEFVSSYDLDRAIKVVVDSFVDAQKVSVRRQLRRSFAIYTLGH
notes: Mcm2, S. cerevisiae; Subunit of m4, written alone for the contacts seen in OCCM^Mcm2RA; also called Mcm2RA; source: S. cerevisiae strain yGC216, purified as a subunit of MCM-Cdt1
B3: Saccharomyces cerevisiae Cdc6 (natural protein, UniProt P09119 1-513, looked up)
chain: MSAIPITPTKRIRRNLFDDAPATPPRPLKRKKLQFTDVTPESSPEKLQFGSQSIFLRTKALLQKSSELVNLNSSDGALPARTAEYEQVMNFLAKAISEHRSDSLYITGPPGTGKTAQLDMIIRQKFQSLPLSLSTPRSKDVLRHTNPNLQNLSWFELPDGRLESVAVTSINCISLGEPSSIFQKIFDSFQDLNGPTLQIKNMQHLQKFLEPYHKKTTFVVVLDEMDRLLHANTSETQSVRTILELFLLAKLPTVSFVLIGMANSLDMKDRFLSRLNLDRGLLPQTIVFQPYTAEQMYEIVIQKMSSLPTIIFQPMAIKFAAKKCAGNTGDLRKLFDVLRGSIEIYELEKRFLLSPTRGSLNSAQVPLTPTTSPVKKSYPEPQGKIGLNYIAKVFSKFVNNNSTRTRIAKLNIQQKLILCTIIQSLKLNSDATIDESFDHYIKAITKTDTLAPLQRNEFLEICTILETCGLVSIKKTKCKGKTKRFVDKIDVDLDMREFYDEMTKISILKPFLH
notes: Cdc6, S. cerevisiae; source: E. coli BL21(CodonPlus)-RIL, plasmid pAM3, purified (glutathione sepharose, preScission protease, hydroxyapatite)
B4: Orc5 (natural protein, Saccharomyces cerevisiae)
chain: MNVTTPEVAFREYQTNCLASYISADPDITPSNLILQGYSGTGKTYTLKKYFNANPNLHAVWLEPVELVSWKPLLQAIARTVQYKLKTLYPNIPTTDYDPLQVEEPFLLVKTLHNIFVQYESLQEKTCLFLILDGFDSLQDLDAALFNKYIKLNELLPKDSKINIKFIYTMLETSFLQRYSTHCIPTVMFPRYNVDEVSTILVMSRCGELMEDSCLRKRIIEEQITDCTDDQFQNVAANFIHLIVQAFHSYTGNDIFALNDLIDFKWPKYVSRITKENIFEPLALYKSAIKLFLSTDDNLSENGQGESAITTNRDDLENSQTYDLSIISKYLLIASYICSYLEPRYDASIFSRKTRIIQGRAAYGRRKKKEVNPRYLQPSLFAIERLLAIFQAIFPIQGKAESGSLSALREESLMKANIEVFQNLSELHTLKLIATTMNKNIDYLSPKVRWKVNVPWEIIKEISESVHFNISDYFSDIHE
notes: Orc5, S. cerevisiae; Subunit of m1, written alone for the contacts seen in the structures; also called Orc5 subunit of ORC; source: S. cerevisiae strain ySD-ORC, purified as a subunit of ORC

Legend:
Experiment in all cases: cryo-EM structure; OCCM^Mcm2RA: 30 nM MH-ARS1-MH DNA, 60 nM ORC, 90 nM Cdc6, 60 nM MCM-Cdt1 (Mcm2 R676A), 3 mM ATP; 25 mM HEPES pH 7.6, 100 mM potassium chloride, 10 mM magnesium acetate, 1 mM DTT; 30 °C, 30 min; 3.3 Å consensus, 3.2 Å local refinements
Conditions in all cases: both partners purified
[1] = molecular target: T1, Orc1
[2] = molecular target: T3, Mcm6 (Saccharomyces cerevisiae, UniProt P53091 1-1017)
T3 construct: Mcm6, S. cerevisiae; Subunit of m4 and m7, written alone for the contacts seen in the structures; also called Mcm6 subunit of MCM; source: S. cerevisiae strains yGC216 and yGC226, purified as a subunit of MCM-Cdt1

[3] = molecular target: T4, Origin Recognition Complex (ORC) (Saccharomyces cerevisiae, UniProt P54784 1-914; P32833 1-620; P54790 1-616; P54791 1-529; P50874 1-479; P38826 …)
T4 construct: Orc1, S. cerevisiae; Orc2, S. cerevisiae; Orc3, S. cerevisiae; Orc4, S. cerevisiae; Orc5, S. cerevisiae; Orc6, S. cerevisiae; also called ORC complex; copies: + + + + +

[4] = molecular target: T2, Orc3
[5] = molecular target: B1

T3 sequence (P53091 whole entry): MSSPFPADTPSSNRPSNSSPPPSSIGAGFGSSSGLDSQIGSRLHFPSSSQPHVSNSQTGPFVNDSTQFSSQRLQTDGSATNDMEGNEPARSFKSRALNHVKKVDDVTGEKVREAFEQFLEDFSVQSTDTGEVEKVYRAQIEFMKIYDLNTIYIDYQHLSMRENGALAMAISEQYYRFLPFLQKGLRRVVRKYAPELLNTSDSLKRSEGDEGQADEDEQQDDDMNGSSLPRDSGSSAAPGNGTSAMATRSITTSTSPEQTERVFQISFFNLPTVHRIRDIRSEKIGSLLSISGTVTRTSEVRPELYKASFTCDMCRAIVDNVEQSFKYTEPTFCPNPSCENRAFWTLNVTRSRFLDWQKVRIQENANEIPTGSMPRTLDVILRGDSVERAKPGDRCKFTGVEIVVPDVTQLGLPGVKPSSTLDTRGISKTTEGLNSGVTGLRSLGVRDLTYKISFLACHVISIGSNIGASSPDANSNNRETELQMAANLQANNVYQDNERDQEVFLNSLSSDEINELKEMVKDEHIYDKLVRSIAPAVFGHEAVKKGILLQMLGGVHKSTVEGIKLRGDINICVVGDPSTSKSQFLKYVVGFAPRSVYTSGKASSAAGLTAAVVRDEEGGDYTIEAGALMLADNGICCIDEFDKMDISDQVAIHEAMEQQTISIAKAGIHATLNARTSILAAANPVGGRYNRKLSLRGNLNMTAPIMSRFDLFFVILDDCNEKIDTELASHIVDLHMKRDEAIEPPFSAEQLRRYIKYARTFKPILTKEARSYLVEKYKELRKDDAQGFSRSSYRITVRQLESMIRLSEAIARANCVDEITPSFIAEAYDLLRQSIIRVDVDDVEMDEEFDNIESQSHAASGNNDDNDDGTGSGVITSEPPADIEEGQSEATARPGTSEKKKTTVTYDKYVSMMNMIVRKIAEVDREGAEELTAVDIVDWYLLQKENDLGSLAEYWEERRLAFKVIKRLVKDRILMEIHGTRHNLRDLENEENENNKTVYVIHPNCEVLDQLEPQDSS
T4 sequence (P32833 whole entry, chain 2 of 2): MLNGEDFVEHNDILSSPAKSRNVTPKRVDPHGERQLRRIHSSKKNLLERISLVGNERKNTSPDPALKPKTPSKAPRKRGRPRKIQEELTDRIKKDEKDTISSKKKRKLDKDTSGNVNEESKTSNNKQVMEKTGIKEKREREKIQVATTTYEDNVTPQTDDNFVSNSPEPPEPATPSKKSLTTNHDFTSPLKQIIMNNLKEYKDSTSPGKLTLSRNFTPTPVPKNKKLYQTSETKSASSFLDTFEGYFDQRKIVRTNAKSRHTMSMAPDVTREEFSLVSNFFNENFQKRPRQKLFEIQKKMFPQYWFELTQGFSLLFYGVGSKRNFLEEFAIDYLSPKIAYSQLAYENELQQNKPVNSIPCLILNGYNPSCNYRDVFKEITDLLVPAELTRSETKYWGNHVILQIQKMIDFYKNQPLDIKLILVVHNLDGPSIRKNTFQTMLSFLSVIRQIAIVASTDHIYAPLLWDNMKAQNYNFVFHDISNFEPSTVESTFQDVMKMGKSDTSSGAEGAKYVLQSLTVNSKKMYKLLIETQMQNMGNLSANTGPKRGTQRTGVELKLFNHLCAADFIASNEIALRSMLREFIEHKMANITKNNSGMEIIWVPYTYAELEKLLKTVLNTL
T4 sequence (P38826 whole entry, chain 6 of 2): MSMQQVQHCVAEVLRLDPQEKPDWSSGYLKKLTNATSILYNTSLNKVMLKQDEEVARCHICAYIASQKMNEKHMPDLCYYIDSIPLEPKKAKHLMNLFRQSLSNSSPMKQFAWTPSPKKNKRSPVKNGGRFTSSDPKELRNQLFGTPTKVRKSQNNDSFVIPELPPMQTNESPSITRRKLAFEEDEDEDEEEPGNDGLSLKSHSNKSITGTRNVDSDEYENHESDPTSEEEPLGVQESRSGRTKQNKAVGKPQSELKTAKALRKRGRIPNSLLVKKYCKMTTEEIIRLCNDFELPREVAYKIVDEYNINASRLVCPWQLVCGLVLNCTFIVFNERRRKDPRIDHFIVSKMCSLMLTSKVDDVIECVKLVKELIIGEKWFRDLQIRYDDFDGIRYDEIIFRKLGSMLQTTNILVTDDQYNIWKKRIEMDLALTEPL

Binder: B1
binding result [1]: binds

Binder: B2
binding result [2]: binds

Binder: B3
binding result [3]: binds
binding result [1]: binds

Binder: B4
binding result [4]: binds
binding result [5]: binds
